Results as given in the supplement of paper PMC11908140.

B1: library; numbered along this chain (parent)
chain: MRKPRAAVGSGHRKQAASQEGRQKHAKNNSQAKPSACDGLARQPEEVVLQASVSSYHLFRDVAEVTAFRGSLLSWYDQEKRDLPWRRRAEDEMDLDRRAYAVWVSEVMLQQTQVATVINYYTGWMQKWPTLQDLASASLEEVNQLWAGLGYYSRGRRLQEGARKVVEELGGHMPRTAETLQQLLPGVGRYTAGAIASIAFGQATGVVDGNVARVLCRVRAIGADPSSTLVSQQLWGLAQQLVDPARPGDFNQAAMELGATVCTPQRPLCSQCPVESLCRARQRVEQEQLLASGSLSGSPDVEECAPNTGQCHLCLPPSEPWDQTLGVVNFPRKASRKPPREESSATCVLEQPGALGAQILLVQRPNSGLLAGLWEFPSVTWEPSEQLQRKALLQELQRWAGPLPATHLRHLGEVVHTFSHIKLTYQVYGLALEGQTPVTTVPPGARWLTQEEFHTAAVSTAMKKVFRVYQGQQPGTCMGSKRSQVSSPCSRKKPRMGQQVLDNFFRSHISTDAHSLNSAAQ

Variants of: B1
Test: 8OG:A repair function score (normalized; synonymous = 0, nonsense = -1) (normalized log-likelihood score); higher = more repair activity (WT-like)
Conditions: with 8OG:A DNA repair reporter (GFP) in HEK-293 MUTYH KO cells
Procedure, shortened: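 After 72 h, viable mCherry+ cells were split into GFP+ (repair) and GFP− bins in three replicates per tile. These cells were MUTYH knockout HEK-293 cells holding lentiviral MUTYH cDNA NNN codon-scan libraries, kept in 10 pg/ml doxycycline and co-transfected with mCherry plus an 8OG:A GFP repair reporter. Sequencing of tile amplicons gave per-tile Rosace fitness scores, normalized into a repair function score anchored on synonymous and nonsense distributions. Synonymous medians were fixed at 0, nonsense at -1, and variants under 300 counts per million at the start were removed.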
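Further: cells sorted at 72 h after reporter transfection.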

Variant	8OG:A repair function score
MRKPRAAVGSGHRKQAASQEGRQKHAKNNSQAKPSACDGLARQPEEVVLQASVSSYHLFRDVAEVTAFRGSLLSWYDQEKRDLPWRRRAEDEMDLDRRAYAVWVSEVMLQQTQVATVINYYTGWMQKWPTLQDLASASLEEVNQLWAGLGYYSRGRRLQEGARKVVEELGGHMPRTAETLQQLLPGVGRYTAGAIASIAFGQATGVVDGNVARVLCRVRAIGADPSSTLVSQQLWGLAQQLVDPARPGDFNQAAMELGATVCTPQRPLCSQCPVESLCRARQRVEQEQLLASGSLSGSPDVEECAPNTGQCHLCLPPSEPWDQTLGVINFPRKASRKPPREESSATCVLEQPGALGAQILLVQRPNSGLLAGLWEFPSVTWEPSEQLQRKALLQELQRWAGPLPATHLRHLGEVVHTFSHIKLTYQVYGLALEGQTPVTTVPPGARWLTQEEFHTAAVSTAMKKVFRVYQGQQPGTCMGSKRSQVSSPCSRKKPRMGQQVLDNFFRSHISTDAHSLNSAAQ [V328I]	-0.0358
MRKPRAAVGSGHRKQAASQEGRQKHAKNNSQAKPSACDGLARQPEEVVLQASVSSYHLFRDVAEVTAFRGSLLSWYDQEKRDLPWRRRAEDEMDLDRRAYAVWVSEVMLQQTQVATVINYYTGWMQKWPTLQDLASASLEEVNQLWAGLGYYSRGRRLQEGARKVVEELGGHMPRTAETLQQLLPGVGRYTAGAIASIAFGQATGVVDGNVARVLCRVRAIGADPSSTLVSQQLWGLAQQLVDPARPGDFNQAQMELGATVCTPQRPLCSQCPVESLCRARQRVEQEQLLASGSLSGSPDVEECAPNTGQCHLCLPPSEPWDQTLGVVNFPRKASRKPPREESSATCVLEQPGALGAQILLVQRPNSGLLAGLWEFPSVTWEPSEQLQRKALLQELQRWAGPLPATHLRHLGEVVHTFSHIKLTYQVYGLALEGQTPVTTVPPGARWLTQEEFHTAAVSTAMKKVFRVYQGQQPGTCMGSKRSQVSSPCSRKKPRMGQQVLDNFFRSHISTDAHSLNSAAQ [A254Q]	-0.213
MRKPRAAVGSGHRKQAASQEGRQKHAKNNSQAKPSACDGLARQPEEVVLQASVSSYHLFRDVAEVTAFRGSLLSWYDQEKRDLPWRRRAEDEMDLDRRAYAVWVSEVMLQQTQVATVINYYTGWMQKWPTLQDLASASLEEVNQLWAGLGYYSRGRRLQEGARKVVEELGGHMPRTAETLQQLLPGVGRYTAGAIASIAFGQATGVVDGNVARVLCRVRAIGADPSSTLVSQQLWGLAQQLVDPARPGDFNQAAMELGATVCTPQRPLCSQCPVESLCRARQRVEQEQLLASGSLSGSPDVEECAPNTGQCHLCLPPSEPWDQTLGVVNFPRKASRKPPREESSATCVLEQPGALGAQILLVQRPNSGLLAGLWEFPSVTWEPSEQLQRKALLQELQRWAGPLPATHLRHLGEVVHTFSHIKLTYQVYGLALEGQTPVTTVPPGARWLTQEEFHTAAVSTAMKKVFRVYQGQQPGTCMGSKRSQVSSPCSRKKPRMGQQVLDNFFRSHISTDAHSDNSAAQ [L516D]	-0.0107
MRKPRAAVGSGHRKQAASQEGRQKHAKNNSQAKPSACDGLARQPEEVVLQASVSSYHLFRDVAEVTAFRGSLLSWYDQEKRDLPWRRRAEDEMDLDRRAYAVWVSEVMLQQTQVATVINYYTGWMQKWPTLQDLASASLEEVNQLWAGLGYYSRGRRLQEGARKVVEELGGHMPRTAETLQQLLPGVGRYTAGAIASIAFQQATGVVDGNVARVLCRVRAIGADPSSTLVSQQLWGLAQQLVDPARPGDFNQAAMELGATVCTPQRPLCSQCPVESLCRARQRVEQEQLLASGSLSGSPDVEECAPNTGQCHLCLPPSEPWDQTLGVVNFPRKASRKPPREESSATCVLEQPGALGAQILLVQRPNSGLLAGLWEFPSVTWEPSEQLQRKALLQELQRWAGPLPATHLRHLGEVVHTFSHIKLTYQVYGLALEGQTPVTTVPPGARWLTQEEFHTAAVSTAMKKVFRVYQGQQPGTCMGSKRSQVSSPCSRKKPRMGQQVLDNFFRSHISTDAHSLNSAAQ [G201Q]	0.039
MRKPRAAVGSGHRKQAASQEGRQKHAKNNSQAKPSACDGLARQPEEVVLQASVSSYHLFRDVAEVTAFRGSLLSWYDQEKRDLPWRRRAEDEMDLDRRAYAVWVSEVMLQQTQVATVINYYTGWMQKWPTLQDLASASLEEVNQLWAGLGYYSRGRRLQEGARKVVEELGGHMPRTAETLQQLLPGVGRYTAGAIASIAFGQATGVVDGNVARVLCRVRAIGADPSSTLVSQQLWGLAQQLVDPARPGDFNQAAMELGATVCTPQRPLCSQCPVESLCRARQRVDQEQLLASGSLSGSPDVEECAPNTGQCHLCLPPSEPWDQTLGVVNFPRKASRKPPREESSATCVLEQPGALGAQILLVQRPNSGLLAGLWEFPSVTWEPSEQLQRKALLQELQRWAGPLPATHLRHLGEVVHTFSHIKLTYQVYGLALEGQTPVTTVPPGARWLTQEEFHTAAVSTAMKKVFRVYQGQQPGTCMGSKRSQVSSPCSRKKPRMGQQVLDNFFRSHISTDAHSLNSAAQ [E285D]	-0.0239
MRKPRAAVGSGHRKQAASQEGRQKHAKNNSQAKPSACDGLARQPEEVVLQASVSSYHLFRDVAEVTAFRGSLLSWYDQEKRDLPWRRRAEDEMDLDRRAYAVWVSEVMLQQTQVATVINYYTGWMQKWPTLQDLASASLEEVNQLWAGLGYYSRGRRLQEGARKVVEELGGHMPRTAETLQQLLPGVGRYTAGAIASIAFGQATGVVDGNVARVLCRVRAIGADPSSTLVSQQLWGLAQQLVDPARPGDFNQAAMELGATVCTPQRPLCSQCPVESLCRARQRVEQEQLLASGSLSGSPDVEECAPNTGQCHLCLPPSEPWDQTLGVVNFPRKASRKPPREESSATCVLEQPGALGAQILLVQRPNSGLLAGLWEFPSVTWEPSEQFQRKALLQELQRWAGPLPATHLRHLGEVVHTFSHIKLTYQVYGLALEGQTPVTTVPPGARWLTQEEFHTAAVSTAMKKVFRVYQGQQPGTCMGSKRSQVSSPCSRKKPRMGQQVLDNFFRSHISTDAHSLNSAAQ [L387F]	-0.293
MRKPRAAVGSGHRKQAASQEGRQKHAKNNSQAKPSACDGLARQPEEVVLQASVSSYHLFRDVAEVTAFRGSLLSWYDQEKRDLPWRRRAEDEMDLDRRAYAVWVSEVMLQQTQVATVINYYTGWMQKWPTLQDLASASLEEVNQLWAGLGYYSRGRRLQEGARKVVEELGGHMPRTAETLQQLLPGVGRYTAGAIASIAFGQATGVVDGNVARVLCRVRAIGADPSSTLVSQQLWGLAQQLVDPARPGDFNQAAMELGATVCTPQRPLCSQCPVESLCRARQRVEQEQLLASGSLSGSPDVEECAPNTGQCHLCLPPSEPWDQTLGVVNFPRKASRKPPREESSATCVLEQPGALGAQILLVQRPNSGLLAGLWEFPSVTWEPSEQLQRKALLQELYRWAGPLPATHLRHLGEVVHTFSHIKLTYQVYGLALEGQTPVTTVPPGARWLTQEEFHTAAVSTAMKKVFRVYQGQQPGTCMGSKRSQVSSPCSRKKPRMGQQVLDNFFRSHISTDAHSLNSAAQ [Q397Y]	-0.0393
MRKPRAAVGSGHRKQAASQEGRQKHAKNNSQAKPSACDGLARQPEEVVLQASVSSYHLFRDVAEVTAFRGSLLSWYDQEKRDLPWRRRAEDEMDLDRRAYAVWVSEVMLQQTQVATVINYYTGWMQKWPTLQDLASASLEEVNQLWAGLGYYSRGRRLQEGARKVVEELGGHQPRTAETLQQLLPGVGRYTAGAIASIAFGQATGVVDGNVARVLCRVRAIGADPSSTLVSQQLWGLAQQLVDPARPGDFNQAAMELGATVCTPQRPLCSQCPVESLCRARQRVEQEQLLASGSLSGSPDVEECAPNTGQCHLCLPPSEPWDQTLGVVNFPRKASRKPPREESSATCVLEQPGALGAQILLVQRPNSGLLAGLWEFPSVTWEPSEQLQRKALLQELQRWAGPLPATHLRHLGEVVHTFSHIKLTYQVYGLALEGQTPVTTVPPGARWLTQEEFHTAAVSTAMKKVFRVYQGQQPGTCMGSKRSQVSSPCSRKKPRMGQQVLDNFFRSHISTDAHSLNSAAQ [M173Q]	-0.93
MRKPRAAVGSGHRKQAASQEGRQKHAKNNSQAKPSACDGLARQPEEVVLQASVSSYHLFRDVAEVTAFRGSLLSWYDQEKRDLPWRRRAEDEMDLDRRAYAVWVSEVMLQQTQPATVINYYTGWMQKWPTLQDLASASLEEVNQLWAGLGYYSRGRRLQEGARKVVEELGGHMPRTAETLQQLLPGVGRYTAGAIASIAFGQATGVVDGNVARVLCRVRAIGADPSSTLVSQQLWGLAQQLVDPARPGDFNQAAMELGATVCTPQRPLCSQCPVESLCRARQRVEQEQLLASGSLSGSPDVEECAPNTGQCHLCLPPSEPWDQTLGVVNFPRKASRKPPREESSATCVLEQPGALGAQILLVQRPNSGLLAGLWEFPSVTWEPSEQLQRKALLQELQRWAGPLPATHLRHLGEVVHTFSHIKLTYQVYGLALEGQTPVTTVPPGARWLTQEEFHTAAVSTAMKKVFRVYQGQQPGTCMGSKRSQVSSPCSRKKPRMGQQVLDNFFRSHISTDAHSLNSAAQ [V114P]	-1.09
MRKPRAAVGSGHRKQAASQEGRQKHAKNNSQAKPSACDGLARQPEEVVLQASVSSYHLFRDVAEVTAFRGSLLSWYDQEKRDLPWRRRAEDEMDLDRRAYAVWVSEVMLQQTQDATVINYYTGWMQKWPTLQDLASASLEEVNQLWAGLGYYSRGRRLQEGARKVVEELGGHMPRTAETLQQLLPGVGRYTAGAIASIAFGQATGVVDGNVARVLCRVRAIGADPSSTLVSQQLWGLAQQLVDPARPGDFNQAAMELGATVCTPQRPLCSQCPVESLCRARQRVEQEQLLASGSLSGSPDVEECAPNTGQCHLCLPPSEPWDQTLGVVNFPRKASRKPPREESSATCVLEQPGALGAQILLVQRPNSGLLAGLWEFPSVTWEPSEQLQRKALLQELQRWAGPLPATHLRHLGEVVHTFSHIKLTYQVYGLALEGQTPVTTVPPGARWLTQEEFHTAAVSTAMKKVFRVYQGQQPGTCMGSKRSQVSSPCSRKKPRMGQQVLDNFFRSHISTDAHSLNSAAQ [V114D]	-0.453
MRKPRAAVGSGHRKQAASQEGRQKHAKNNSQAKPSACDGLARQPEEVVLQASVSSYHLFRDVAEVTAFRGSLLSWYDQEKRDLPWRRRAEDEMDLDRRAYAVWVSEVMLQQTQVATVINYYTGWMQKWPTLQDLASASLEEVNQLWAGLGYYSRGRRLQEGARKVVEELGGHMPRTAETLQQLLPGVGRYTAGAIASIAFGQATGVVDGNVARVLCRVRAIGADPSSTLVSQQLWGLAQQLVDPARPGDFNQAAMELGATVCTPQRPLCSQCPVESLCRARQRVEQEQLLASGSLSGSPDVEECAPNTGQCHLCLPPSEPWDQTLGVVNFPRKASRKPPREESSATCVGEQPGALGAQILLVQRPNSGLLAGLWEFPSVTWEPSEQLQRKALLQELQRWAGPLPATHLRHLGEVVHTFSHIKLTYQVYGLALEGQTPVTTVPPGARWLTQEEFHTAAVSTAMKKVFRVYQGQQPGTCMGSKRSQVSSPCSRKKPRMGQQVLDNFFRSHISTDAHSLNSAAQ [L349G]	-1.03
MRKPRAAVGSGHRKQAASQEGRQKHAKNNSQAKPSACDGLARQPEEVVLQASVSSYHLFRDVAEVTAFRGSLLSWYDQEKRDLPWRRRAEDEMDLDRRAYAVWVSEVMLQQTQVATVINYYTGWMQKWPTLQDLASASLEEVNQLWAGLGYYSRGRRLQEGARKVVEELGGHMPRTAETLQQLLPGVGRYTAGAIASIAFGQATGVVDGNVARVLCRVRAIGADPSSTLVSQQLWGLAQQLVDPARPGDFNQAAMELGATVCTPQRPLCSQCPVESLCRARQRVEQEQLLASGSLSGSPDVEECAPNTGQCHLCLPPSEPWDQTLGVVNFPRKASRKPPREESSATCVLEQPGALGAQILLVQRPNSGLLAGLWEFPSVTWEPSEQLQRKALLQELQRWAGPLPATHLRHLGEVVHTFSHIKLTYQVYGLALEGQTPVTTVAPGARWLTQEEFHTAAVSTAMKKVFRVYQGQQPGTCMGSKRSQVSSPCSRKKPRMGQQVLDNFFRSHISTDAHSLNSAAQ [P442A]	-0.19
